We go through 2 molecules from paper PMC6251626, “Structural basis of tubulin recruitment and assembly by microtubule polymerases with tumor overexpressed gene (TOG) domain arrays” (eLife, 2018).

Series [1] concerns the molecule itself. Kind of series: SEC-MALS; isolated proteins alone, 200 mM KCl. For orientation: In gel filtration, larger molecules generally elute earlier.
The target in series [2] is T1, αβ-tubulin heterodimer purified from porcine brains (porcine, UniProt P02550 1-451; P02554 1-445).
T1 construct: α-tubulin of porcine brain; β-tubulin of porcine brain; Brain tubulin is a mixture of isotypes; Chains also in PDB 6MZF, 6MZE, 6MZG; also called soluble porcine αβ-tubulin; source: purified from porcine brains (two GTP-polymerization cycles at high ionic strength); copies: 1 + 1
Kind of series: SEC-MALS; Alp14 constructs mixed with soluble αβ-tubulin (with or without DRP), Superdex 200 Increase 10/300, 80-100 mM KCl. As to conditions: both partners purified.

In series [3] the target is T1, αβ-tubulin heterodimer purified from …. Kind of series: SEC; quantitative SEC (Superdex 200 10/300) with SDS-PAGE densitometry of fractions; 2 αβ-tubulin per Alp14 subunit, with or without DRP; 100 mM KCl, 50 mM HEPES pH 7.0, 1 mM MgCl2, 1 mM β-mercaptoethanol. As to conditions: both partners purified.
The target is the same in series [4]. Description: SEC; quantitative SEC (Superdex 200 10/300) with SDS-PAGE densitometry of fractions; 2 αβ-tubulin per Alp14 subunit, with or without DRP; 200 mM KCl, 50 mM HEPES pH 7.0, 1 mM MgCl2, 1 mM β-mercaptoethanol. As to conditions: both partners purified.

B1: wt-Alp14-dimer (S. pombe Alp14 residues 1-690) (domain or fragment, UniProt O94534 1-690, looked up)
chain: MSQDQEEDYSKLPLESRIVHKVWKVRLSAYEECSKSFSLSADGSDNCFELWNNQSELWKSVLTDSNVAAQEAGTAAFVAYCRFSDPSHLLKAREISVLSISEKCLTSPRAGTRENALEALMLLVEADSAAPVIESIIPSLSARSPKVIASNVAAIASLVEQFGAKVIPSKMIIPHISNLFGHADKNVRKEASRLTVNIYRWTGDPLKDLLFKDLRPVQTKELESLFAELPTEPPKQTRFLKSQQPTSEPNVETQVEEQPALENEESEPEPSDDQFDLVEEVDVLPNVDPNLETLMASSKWKDRKEALDKLLPVLSQPKIKDNDFFNLVAILTKSVSKDANIMVVINAAHCIQAMAKGLRSNFSKYASTSINALLERSKEKKANVIESLSSAMDAVLATSSLDDLAELIASFAGNKNPQIKSSCFSLFSRSFSNMTSLPSKFTVDTCAKACVPGVSDTFEPVRSAAAEALGVLMKLVGERAINQYLSPLDDIRKSKIRSFYETATVKAKAPTKKSKVKPSKQEESKVVVPSNAKAVKKSVVPSSPVVPSPRKATNKSLSMDVSKGNAFENGPLLPRPTTRPVSRGLSRGTSSSLQQKVKASTPLNSGALNETVQNLKNMELDDPAPQPAKHSRVDRYEHPKVLEDNDSTISSLESLKRENEELREQLKVEHEENISMQKQLSELKGELNTL
notes: Alp14 (Alp14p), S. pombe, residues 1-690 (TOG1-TOG2, SK-rich region, coiled coil); also called dimeric Alp14; source: E. coli BL21, purified (Ni-IDA and/or ion exchange, SEC)
One may read the stoichiometry N as the number of molecules, sites or subunits per partner or assembly. As to B1, the “stoichiometry N” value in series [1] stood at 2.

B2: INT1+2 (Alp14-dimer with interfaces 1 and 2 inactivated) (domain or fragment)
chain: MSQDQEEDYSKLPLESRIVHKVWKVRLSAYEECSKSFSDAAAGSDNCFELWNNQSELWKSVLTDSNVAAQEAGTAAFVAYCRFSDPSHLLKAREISVLSISEKCLTSPRAGTRENALEALMLLVEADSAAPVIESIIPSLSARSPKVIASNVAAIASLVEQFGAKVIPSKMIIPHISNLFGHADKNVRKEASRLTVNIYRWTGDPAKDALFKDLRPVQTKELESLFAELPTEPPKQTRFLKSQQPTSEPNVETQVEEQPALENEESEPEPSDDQRAAAEEVDVLPNVDPNLETLMASSKWKDRKEALDKLLPVLSQPKILDNDFFNLVAILTKSVSKDANIMVVINAAHCIQAMAKGLASNFSKYASTSINALLERSKEKKANVIESLSSAMDAVLATSSLDDLAELIASFAGNKNPQIKSSCFSLFSRSFSNMTSDPAKFTVDTCAKACVPGVSDTFEPVRSAAAEALGVLMKLVGAAAINQYLSPLDDIRKSKIRSFYETATVKAKAPTKKSKVKPSKQEESKVVVPSNAKAVKKSVVPSSPVVPSPRKATNKSLSMDVSKGNAFENGPLLPRPTTRPVSRGLSRGTSSSLQQKVKASTPLNSGALNETVQNLKNMELDDPAPQPAKHSRVDRYEHPKVLEDNDSTISSLESLKRENEELREQLKVEHEENISMQKQLSELKGELNTL
As to B2, the “stoichiometry N” value in series [2] is ~4. Besides, the “TOG1-TOG2:αβ-tubulin molar ratio” value was 1.86 in series [3] and 1.46 in series [4].
